Reference: PMC11833081, “Biochemical analyses of cystatin-C dimers and cathepsin-B reveals a trypsin-driven feedback mechanism in acute pancreatitis” (Nature Communications, 2025)
Values belong to the molecule of their own block, whether it stands above or below them.

How the values were obtained:
[1] = molecular target: trypsin-cleaved (truncated) recombinant murine cystatin C (mouse) (UniProt P21460); experiment: SEC; pH 4.0: 100 mM sodium acetate, 150 mM sodium chloride; 3 mg/mL protein kept at 4 °C overnight in the buffer; monomer to dimer ratio
[2] = molecular target: trypsin-cleaved (truncated) recombinant murine cystatin C (mouse) (UniProt P21460); experiment: SEC; pH 5.0 and 5.5 (100 mM sodium acetate, 150 mM NaCl) and pH 5.5, 6.0, 7.0, 8.0 (100 mM sodium phosphate, 150 mM NaCl); 3 mg/mL protein kept at 4 °C overnight in the buffer; monomer to dimer ratio
[3] = molecular target: recombinant murine cathepsin B, wild type, auto-activated (mouse)
[4] = molecular target: the molecule itself; experiment: SEC; Superdex 75 Increase 10/300 GL; running buffer 100 mM sodium acetate, 5 mM calcium chloride, 100 mM NaCl, pH 5.5; separation of monomer and dimer fractions

- percent present as dimer [1]: 100%
- percent present as dimer [2]: 70%
Molecule: trypsin-cleaved (truncated) recombinant murine cystatin C (from UniProt P21460 29-140) (domain or fragment)

- CTSB activity at pH 5.5 (Arg-Arg-AMC) with the CST3 dimer fraction [3]: 3 fold
B1: murine cystatin C dimer (dimer fraction isolated by size exclusion chromatography) (complex)
chain: ATPKQGPRMLGAPEEADANEEGVRRALDFAVSEYNKGSNDAYHSRAIQVVRARKQLVAGVNYFLDVEMGRTTCTKSQTNLTDCPFHDQPHLMRKALCSFQIYSVPWKGTHSLTKFSCKNA

B2: recombinant murine cystatin C (CST3), full-length (not trypsin-treated) (natural protein, mouse, UniProt P21460 21-140, looked up)
chain: B1 chain
notes: cystatin C, mouse, synthetic gene ordered without the signal peptide; The preparation is a mixture of monomer and dimer; the monomer fraction isolated by SEC is called mCST3; also called mCST3 (monomer fraction); CST3 monomers; source: E. coli SHuffle T7 Express, purified (Ni-IDA; monomer fraction by SEC); not shown: His-tag, N-terminal, kept; TEV protease cleavage site, N-terminal, kept
- stoichiometry N [4]: 2
